# Measured values: patent publication US12702697B2, “Compositions and methods for treatment of headache disorders and neuropathic pain” (Washington University, priority 2019, dated 2026)
# B1: ld-IL2: Recombinant mouse IL2 (carrier-free; Biolegend), given as daily low-dose i.p. injection (protein, UniProt P04351 21-169, looked up)
# Interleukin-2: APTSSSTSSSTAEAQQQQQQQQQQQQHLEQLLMDLQELLSRMENYRNLKLPRMLTFKFYLPKQATELKDLQCLEDELGPLRHVLDLTQSKSFQLEDAENFISNIRVTVVKLKGSDNTFECQFDDESATVVDFLRRWIAFCQSIISTSPQ
# How the values were obtained:
# [1] = tested on: SNI-induced punctate and dynamic allodynia in mice; test: Mouse model of spared nerve injury (SNI): punctate (von Frey) and dynamic (brush) allodynia; type: in vivo
# Description: Mouse model of SNI. Mice were anesthetized with 3-4% isoflurane in an induction chamber until losing the righting reflex. Anesthesia was maintained by 1.5-2% isoflurane through a nose cone. After skin and muscle incision to expose the right sciatic nerve in the thigh region, we tightly ligated two branches (sural and common peroneal nerves) with 7-0 silk suture (Braintree Scientific, Braintree, MA) and transected ~2 mm of the nerve distal to the ligature. The third branch of the sciatic nerve (tibial nerve) was left intact, and caution was taken not to stretch or contact the spared nerve. In sham mice the right sciatic nerve and its branches were exposed but were not touched. After the surgery, the overlying muscle and skin layers were closed separately with 6-0 vicryl suture and interrupted nylon suture for the skin incision, respectively.
# Response to punctate mechanical stimuli on the hindpaw. Mice were habituated in individual clear plexiglass boxes (11×11×15 cm) for 1-2 hours. A series of calibrated von Frey filaments were used to apply mechanical stimuli to the medial plantar surface of the hindpaw (the tibial nerve territory). We used the up-down paradigm to determine the 50% withdrawal threshold.
# Response to dynamic mechanical stimuli on the hindpaw. Mice were habituated in individual clear plexiglass boxes (11×11×15 cm) for 1-2 hours. The medial plantar surface of the hindpaw (tibial nerve territory) was stimulated by light stroking with a blunt paintbrush (5/0, Princeton Art & Brush Co., Princeton, NJ) from heel to toe at ~2 cm/second. The behavior was scored as described previously. Score 0 indicates no evoked movement or lifting the stimulated paw for less than 1 second. Score 1 indicates a sustained lifting (more than 2 seconds) of the stimulated paw toward the body or a single gentle flinching of the stimulated paw. Score 2 indicates a strong lateral lift of the stimulated paw above the level of the body or a startle-like jump. Score 3 indicates multiple flinching or licking of the stimulated paw. Each paw was tested 3 times, with minimal interval of 3 minutes. The scores of 3 tests were averaged to indicate the response to dynamic mechanical stimuli.
# Ld-IL2 treatment. Recombinant mouse IL2 (carrier-free, Biolegend, San Diego, CA) was freshly diluted from the stock (0.5-1 mg/ml aliquots at −80° C.) every day. Each mouse received daily intraperitoneal (i.p.) injection of 1 μg IL2 in 100 μl saline at various durations. The control mice received daily i.p. injections of 100 μl saline. Note that on the days that the mouse behaviors were tested, IL2 was always injected after completing the behavioral tests. […]
# [2] = tested on: IFNγ secretion by splenocytes; test: IFNγ ELISA and ELISPOT of CD3/CD28-stimulated splenocytes; type: cell-based, mouse
# Procedure: To quantify interferon g (IFNγ) secretion, splenocytes were plated in 24-well plates (5 3 106 per well) and stimulated with antiCD3 and anti-CD28 antibodies ([…]) in 1 mL complete RPMI1640 media overnight. IFNγ in the supernatants were quantified by ELISA (430901; Biolegend).
# ELISPOT assay was performed to determine the number of INFg-secreting cells. Splenocytes were plated at 5×10^4 cells per well and incubated overnight with RPMI1640 media containing anti-CD3 and anti-CD28 antibodies ([…]) for stimulation. IFNg was detected using a colorimetric reagent kit (R&D SEL485 and SEL002). Following development, images were captured and analyzed on the ImmunoSpot7.0 plate reader (Cellular Technologies, Kennesaw, GA).
# Treg cells = test: Flow cytometry of T-cell subsets in peripheral blood, cervical LNs and spleen; type: in vivo, mouse
# Description: Blood, spleen, and cervical lymph node cell preparation, antibody staining, flow cytometry, and enzyme-linked immunosorbent assay (ELISA). Adult male DEREG and C57BL/6J mice received 15 daily injections of saline or IL2. About […] blood was collected from each mouse by submandibular bleeding. Mice used for blood collection were not used in the behavioral tests. Spleen and cervical LN tissues were ground and filtered through a sterile […] cell strainer. After lysis of red blood cells (420301; Biolegend), cells were pelleted and resuspended for antibody staining, ELISA, and ELISPOT assay. Live cells were counted by the Vi-CELL Automated Cell Viability Analyzer (Beckman, Chaska, MN).
# About 2×10^6 suspension cells were stained with the following antibodies from Biolegend that recognizes mouse CD3e (clone 145-2C11), CD4 (clone GK1.5 and RM4-5), CD8 (clone 53-6.7), and CD25 (clone PC61). The percentages of individual cell phenotypes were determined using flow cytometric analysis. Data were collected with FACScan (Becton Dickinson, Franklin Lakes, NJ) and analyzed with CellQuest Pro (Becton Dickinson) and Rainbow X Alias (Cytek) softwares.
# [3] = tested on: sumatriptan-induced cutaneous hypersensitivity in mice; test: Mouse model of medication overuse headache (repeated sumatriptan); type: in vivo
# Procedure: Mouse model of medication overuse headache. After measuring baseline nociceptive responses, mice received daily i.p. injections of sumatriptan succinate (0.6 mg/kg; Fresenius Kabi, Lake Zurich, IL44). Daily ld-IL2 or saline were administered after mice received 2 sumatriptan injections. Facial and hindpaw mechanical thresholds were measured every 2 days. Note that on the days that the mouse behaviors were tested, sumatriptan and/or IL2 were always injected after completing the behavioral tests.
# Responses to mechanical stimuli on the hindpaw. Mice were habituated in individual clear plexiglass boxes (11×11×15 cm) for 1 to 2 hours. A series of calibrated von Frey filaments was used to apply mechanical stimuli to the plantar surface of the hindpaws. The up-down paradigm was used to determine the 50% withdrawal threshold. The thresholds for both hindpaws were averaged to yield a single value for each mouse.
# Withdrawal responses to facial mechanical stimuli. The hair on mouse forehead (above and between 2 eyes) was shaved the day before testing. On the test day, the experimenter gently held the mouse on the palm with minimal restraint and applied the calibrated von Frey filament perpendicularly to the shaved skin, causing the filament to bend for 5 seconds. A positive response was determined by the following criteria as previously described: mouse vigorously stroked its face with the forepaw, head withdrawal from the stimulus, or head shaking (Elliott M B et al., Headache 2012; 52:966-84). The up-down paradigm was used to determine the 50% withdrawal threshold.
# [4] = 15 days of ld-IL2, C57BL/6J males
molecule,measurement,setting,value
B1,days of ld-IL2 treatment after which the mechanical threshold started to reverse,"[1]; 3-week ld-IL2 started 7 days post-SNI, ipsilateral paw",3 days
same,basal punctate and dynamic mechanical sensitivity,"[1]; 5 days of ld-IL2 injections before SNI, female Swiss Webster",not altered
same,mechanical threshold of SNI+IL2 versus sham+IL2 group,[1]; after 7 days of IL2 treatment (day 14-28),not different
same,dynamic allodynia,[1]; after 7 days of IL2 treatment (day 15-29),completely reversed
same,integrated AOC of withdrawal threshold between day 10 and 28 post-SNI versus SNI+saline,[1]; delayed ld-IL2,significantly lower
same,integrated AOC of dynamic allodynia score versus SNI+saline,"[1]; delayed ld-IL2, between day 10 and 28 post-SNI",significantly lower
same,responses to brush stimuli of the contralateral paw and of sham mice,[1]; ld-IL2,did not change
same,SNI-caused reduction of the withdrawal threshold,[1]; ld-IL2 1 μg/mouse/day i.p. from 5 days before to 21 days post-SNI (saline: threshold about 20% of baseline),50%
same,mechanical threshold of the contralateral (left) paw,"[1]; ld-IL2, SNI mice",did not change
same,development of hyper-sensitivity to brush stimuli (dynamic allodynia),[1]; ld-IL2 pretreatment,prevents the development
same,magnitude of punctate allodynia (AOC day 0 to day 22 post-SNI),[1]; ld-IL2 pretreatment,significantly attenuated
same,amount of CD3/CD28 stimulation-induced IFNγ secretion,"[2]; ELISA, cells from IL-2-treated mice",significantly reduced
same,number of splenocytes secreting IFNγ,"[2]; ELISPOT, 15 days of ld-IL2",not altered
same,percentage of EGFP+ Treg cells in the cervical LNs,"Treg cells; 15 daily ld-IL2 injections, male DEREG mice",increased significantly
same,number and frequency of CD25+CD4+ Treg cells in the spleen,Treg cells; [4],doubled
same,number of CD8+ cells in the spleen,Treg cells; [4],increased only slightly
same,increase of the frequency of EGFP+ Treg cells in the peripheral blood,"Treg cells; after 5 daily ld-IL2 injections i.p., male DEREG mice",more than 100%
same,frequencies of CD4+ and CD3+ T cells in the blood or LNs,"Treg cells; daily ld-IL2, 15 days",not altered
same,sumatriptan induced cutaneous hypersensitivity,[3]; after 4 to 6 ld-IL2 injections (day 7-9),significantly attenuated
same,sumatriptan induced cutaneous hypersensitivity,[3]; after 8 days of IL2 treatment (day 11),completely reversed
same,cutaneous hypersensitivity in response to subsequent sumatriptan injections,[3]; continuous ld-IL2 (day 13),neither male nor female mice developed cutaneous hypersensitivity
